Assay results from US10562935B2, “Stapled peptides and uses thereof” (London Health Sciences Centre Research Inc., priority 2015, dated 2020).
Where a SMILES comes first, the peptide text is derived from it. Bridges are numbered along the chain shown (N, C = ends). The star is where a group is joined. Biotin = O=C1N[C@H]2[C@H](CS[C@H]2CCCCC(=O)*)N1; AEEA = NCCOCCOCC(=O)O

Experiment: circular dichroism
Conditions: water (methods paragraph says 0.1 M phosphate; tables say water); pH ns; 20 °C; 0.5 mM

Compound	helicity
CC(=O)N[C@H](C(=O)N[C@@H](CO)C(=O)N[C@@H](CCCCN)C(=O)N[C@@H](CC(C)C)C(=O)N[C@@H](CCCNC(=N)N)C(=O)N[C@H]1CCC(=O)NCCCC[C@@H](C(=O)N[C@@H](CCCNC(=N)N)C(=O)N[C@@H](CCCCN)C(=O)N[C@@H](CCC(N)=O)C(=O)N[C@@H](CC(N)=O)C(N)=O)NC(=O)[C@H](C(C)C)NC(=O)[C@H](CC(C)C)NC(=O)[C@H](CCC(N)=O)NC1=O)C(C)C (Ac-VSKLREQLVKRKQN-NH2; lactam 6-10)	-4850 MRE222
CC[C@H](C)[C@H](NC(=O)[C@H](CCCCN)NC(=O)[C@H](CCC(N)=O)NC(=O)[C@H](CCCCN)NC(=O)[C@H](CC(C)C)NC(=O)[C@H](CC(N)=O)NC(C)=O)C(=O)N[C@@H](CCCCN)C(=O)N[C@H]1CCC(=O)NCCCC[C@@H](C(=O)N[C@@H](CCCCN)C(=O)N[C@@H](CC(=O)O)C(=O)N[C@@H](CCC(=O)O)C(N)=O)NC(=O)[C@H](CCCCN)NC(=O)[C@H](C(C)C)NC(=O)[C@H](C(C)C)NC1=O (Ac-NLKQKIKEVVKKKDE-NH2; lactam 8-12)	-1800 MRE222
CC[C@H](C)[C@@H]1NC(=O)[C@@H](NC(=O)[C@H](CCC(N)=O)NC(=O)[C@H](CCCCN)NC(=O)[C@H](CC(C)C)NC(=O)[C@H](CC(N)=O)NC(C)=O)CCC(=O)NCCCC[C@@H](C(=O)N[C@H](C(=O)N[C@@H](CCCCN)C(=O)N[C@@H](CC(C)C)C(=O)N[C@@H](CCCCN)C(=O)N[C@@H](CC(=O)O)C(=O)N[C@@H](CCC(=O)O)C(N)=O)C(C)C)NC(=O)[C@H](Cc2c[nH]cn2)NC(=O)[C@H](CCCCN)NC1=O (Ac-NLKQEIKHKVKLKDE-NH2; lactam 5-9)	-2830 MRE222
CC[C@H](C)[C@H](NC(=O)[C@H](CCCCN)NC(=O)[C@H](CCC(N)=O)NC(=O)[C@H](CCCCN)NC(=O)[C@H](CC(C)C)NC(=O)[C@H](CC(N)=O)NC(C)=O)C(=O)N[C@H]1CCC(=O)NCCCC[C@@H](C(=O)N[C@@H](CC(C)C)C(=O)N[C@@H](CCCCN)C(=O)N[C@@H](CC(=O)O)C(=O)N[C@@H](CCC(=O)O)C(N)=O)NC(=O)[C@H](C(C)C)NC(=O)[C@H](C(C)C)NC(=O)[C@H](Cc2c[nH]cn2)NC1=O (Ac-NLKQKIEHVVKLKDE-NH2; lactam 7-11)	-3850 MRE222
CC(=O)N[C@H](C(=O)N[C@@H](CO)C(=O)N[C@@H](CCCCN)C(=O)N[C@@H](CC(C)C)C(=O)N[C@H]1CCCCNC(=O)CC[C@@H](C(=O)N[C@@H](CCCCN)C(=O)N[C@@H](CCCNC(=N)N)C(=O)N[C@@H](CCCCN)C(=O)N[C@@H](CCC(N)=O)C(=O)N[C@@H](CC(N)=O)C(N)=O)NC(=O)[C@H](CC(C)C)NC(=O)[C@H](CCC(N)=O)NC(=O)[C@H](CO)NC1=O)C(C)C (Ac-VSKLKSQLEKRKQN-NH2; lactam 5-9)	-974 MRE222
CC(=O)N[C@H](C(=O)N[C@@H](CO)C(=O)N[C@@H](CCCCN)C(=O)N[C@@H](CC(C)C)C(=O)N[C@@H](CCCNC(=N)N)C(=O)N[C@H]1CCCCNC(=O)CC[C@@H](C(=O)N[C@@H](CCCNC(=N)N)C(=O)N[C@@H](CCCCN)C(=O)N[C@@H](CCC(N)=O)C(=O)N[C@@H](CC(N)=O)C(N)=O)NC(=O)[C@H](C(C)C)NC(=O)[C@H](CC(C)C)NC(=O)[C@H](CCC(N)=O)NC1=O)C(C)C (Ac-VSKLRKQLVERKQN-NH2; lactam 6-10)	-1980 MRE222
CC(=O)N[C@H](C(=O)N[C@@H](CO)C(=O)N[C@@H](CCCCN)C(=O)N[C@H]1CCC(=O)NCCCC[C@@H](C(=O)N[C@H](C(=O)N[C@@H](CCCCN)C(=O)N[C@@H](CCCNC(=N)N)C(=O)N[C@@H](CCCCN)C(=O)N[C@@H](CCC(N)=O)C(=O)N[C@@H](CC(N)=O)C(N)=O)C(C)C)NC(=O)[C@H](CCC(N)=O)NC(=O)[C@H](CO)NC(=O)[C@H](CCCNC(=N)N)NC1=O)C(C)C (Ac-VSKERSQKVKRKQN-NH2; lactam 4-8)	-3350 MRE222

Experiment: not given
Conditions: biotinylated peptide, HA coated ELISA plate

Compound	peptide concentration required for equivalent interaction with HA
Biotin-AEEA-(cyclo-6,10)-VSKLR[EQLVK]RKQN-NH2 [Compound 287]	80 ng/mL
{Biotin-AEEA}-VSKLRSQLVKRKQN-NH2 [Compound 284]	10000 ng/mL
